Read-outs that look alike come from different tables or passages of the source. Where no end group is shown, it is not given here.
Assays:
[1] = test system: RPA70N–BLM peptide complex; experiment: Competitive FPA assay, unlabeled pmRPA32 peptide against FITC-labeled BLM peptide on RPA70N; assay type: binding; conditions: 0–250 μM unlabeled pmRPA32 peptide; 6 μM (BLM153-165) or 13 μM (BLM290-301) RPA70N; 500 nM FITC-labeled BLM peptide; repeated three times; Fig. S4
Procedure: For FITC labeling, a 6-aminocaproic acid (6-aminohexanoic acid) spacer was used. Increasing concentrations (0–150 μM) of RPA70N or RPA70A were prepared in an assay buffer of 20 mM HEPES, 100 mM NaCl, 2 mM DTT, pH 7.4, in Corning 96-well black flat-bottom plates (polystyrene, nontreated). To each well, FITC-RPA32 peptide was added to a final concentration of 50 nM, and the plates were incubated on a shaker for 1 h at 25 °C. The total volume of the reaction sample was 50 μl. The emission polarization anisotropy was calculated by referring to a previous publication ([5]). The fluorescence was measured using BioTek Cytation5 and GENE5 software (GIST, Gwangju) with excitation and emission wavelengths of 485 and 528 nm, respectively. […] All experiments were repeated three times, and dissociation constants (Kd) were calculated using the “one site–specific” fitting model of the GraphPad software. The equation used in the fitting is as follows, (Eq. 1) y=Bmax×X/Kd+X where y is the fluorescence anisotropy, Bmax is the maximum specific binding, Kd is the equilibrium binding constant, and X is the concentration of RPA. […] Equilibrium fluorescence measurements were performed in the same way as described above. […]
Competitive fluorescence polarization anisotropy of BLM peptide, RPA70N, and pmRPA32 peptide. […]

RPA70A (RPA70A181–304) = experiment: Fluorescence polarization anisotropy (FPA) assay, FITC-labeled peptide + RPA70A; assay type: binding; conditions: 50 nM FITC-labeled peptide, 0–150 μM RPA70A, pH 7.4, 25 °C, anisotropy not saturated, not fitted
Procedure: RPA70N1–120 and RPA70A181–304 were expressed and purified as described previously ([5], [30]). ^15N-Labeled RPA70N was also expressed and purified with the same method using M9 medium. All of the synthesized peptides except for the FITC-labeled peptide were purchased from Lugen Sci (Gyeonggi-do, Korea). FITC-labeled peptides were purchased from AnyGen (Gwangju, Korea). Purchased peptides were dissolved in 20 mM HEPES, 100 mM NaCl, 2 mM DTT, pH 7.4, buffer to make a 2 mM stock and stored at −20 °C until use.
For FITC labeling, a 6-aminocaproic acid (6-aminohexanoic acid) spacer was used. […] The emission polarization anisotropy was calculated by referring to a previous publication ([5]). The fluorescence was measured using BioTek Cytation5 and GENE5 software (GIST, Gwangju) with excitation and emission wavelengths of 485 and 528 nm, respectively. […] All experiments were repeated three times, and dissociation constants (Kd) were calculated using the “one site–specific” fitting model of the GraphPad software. The equation used in the fitting is as follows, (Eq. 1) y=Bmax×X/Kd+X where y is the fluorescence anisotropy, Bmax is the maximum specific binding, Kd is the equilibrium binding constant, and X is the concentration of RPA. […] Equilibrium fluorescence measurements were performed in the same way as described above. […]

[2] = biological target: T1, RPA70N (N-terminal domain of RPA70, RPA70N1–120) (Homo sapiens, UniProt P27694); conditions: RPA70N binding, cited from earlier work
T1 construct: RPA70N1–120 and RPA70A181–304 were expressed and purified as described previously; made in house

[3] = biological target: T2, RPA70N_(1–120), N-terminal domain of RPA70 (DBD-F) (UniProt P27694 1-120); experiment: fluorescence polarisation; FPA; 0–150 μM RPA70N or RPA70A titrated to 50 nM FITC-labeled peptide; 20 mM HEPES, 100 mM NaCl, 2 mM DTT, pH 7.4; 1 h at 25 °C; one site–specific fit; conditions: both partners purified
T2 construct: Replication protein A 70-kDa subunit (RPA70), N-terminal domain (DBD-F), residues 1-120; Uniformly 15N-labelled in the NMR titrations, unlabelled in the FPA assays; also called 15N-labeled RPA70N; source: 15N-labeled form by the same method using M9 medium

[4] = biological target: T2, RPA70N_(1–120), N-terminal domain of …; experiment: fluorescence polarisation; competitive FPA; 0–250 μM unlabeled pmRPA32 peptide added to 6 μM (for BLM 153-165) or 13 μM (for BLM 290-301) RPA70N and 500 nM FITC-labeled BLM peptide; 20 mM HEPES, 100 mM NaCl, 2 mM DTT, pH 7.4; conditions: both partners purified
[5] = biological target: T2, RPA70N_(1–120), N-terminal domain of …; experiment: fluorescence polarisation; FPA; 0–150 μM RPA70N or RPA70A titrated to 50 nM FITC-labeled peptide; 20 mM HEPES, 100 mM NaCl, 2 mM DTT, pH 7.4; 1 h at 25 °C; one site–specific fit; conditions: both partners purified; remark: listed apart in the source
[6] = measured with the same FPA method

C[C@H](NC(=O)CNC(=O)CNC(=O)[C@H](Cc1ccc(O)cc1)NC(=O)[C@H](CC(=O)O)NC(=O)[C@H](CC(=O)O)NC(=O)[C@H](CC(=O)O)NC(=O)CNC(=O)[C@H](Cc1ccc(O)cc1)NC(=O)[C@H](CC(=O)O)NC(=O)CCCCCNC(=S)Nc1ccc2c(c1)C(=O)OC21c2ccc(O)cc2Oc2cc(O)ccc21)C(=O)NCC(=O)NCC(=O)N[C@@H](Cc1ccc(O)cc1)C(=O)N[C@@H](CC(=O)O)C(=O)N[C@@H](CCC(N)=O)C(=O)N[C@@H](CC(=O)O)C(=O)N1CCC[C@H]1C(=O)NCC(=O)NCC(=O)N[C@@H](Cc1ccccc1)C(=O)NCC(=O)N[C@@H](CC(=O)O)C(=O)N1CCC[C@H]1C(=O)N[C@@H](C)C(=O)N1CCC[C@H]1C(=O)N[C@@H](CC(=O)O)C(=O)O [pmRPA32]
Competition with FITC-labeled BLM peptide for RPA70N [1]: did not compete with BLM peptide | Binding to RPA70A (in words) (RPA70A (RPA70A181–304)): does not bind

ATRIP54–68: RPA70N-binding sequence of ATRIP (DFTADDLEELDTLAS; UniProt Q8WXE1 54-68, looked up, fragment)
Kd [2]: 28.6 ± 3.1 µM

BLM153–165: acidic RPA70N-binding peptide from the N-terminal region of Bloom syndrome protein (DWDDMDDFDTSET; also: FITC via 6-aminohexanoic acid spacer, end not given here)
Kd [2, 6]: 5.76 ± 0.86 µM

BLM290–301: acidic RPA70N-binding peptide from the N-terminal region of Bloom syndrome protein (EFDDDDYDTDFV; also: FITC via 6-aminohexanoic acid spacer, end not given here)
Kd [2, 6]: 13.5 ± 2.4 µM

MRE11_539–553: RPA70N-binding sequence of MRE11 (AFSADDLMSIDLAEQ; UniProt P49959 539-553, looked up, fragment)
Kd [2]: 65.8 ± 23.7 µM

RAD9_297–311: RPA70N-binding sequence of RAD9 (DFANDDIDSYMIAME; UniProt Q99638 297-311, looked up, fragment)
Kd [2]: 51.4 ± 8.9 µM

p53_44–58: RPA70N-binding sequence of p53
Kd [2]: 99.9 ± 8.4 µM

B1: FITC-labeled pmRPA32_(8–33) peptide (phosphomimetic RPA32, eight aspartic acids) (peptide, UniProt P15927 8-33, looked up)
peptide: DYGDDDYGGAGGYDQDPGGFGDPAPD
modifications: also: FITC with 6-aminohexanoic acid spacer, end not given here
Kd [3]: 21.5 ± 0.6 µM

B2: FITC-labeled BLM_(153-165) peptide (peptide, UniProt P54132 153-165, looked up)
peptide: DWDDMDDFDTSET
modifications: also: FITC via 6-aminohexanoic acid spacer, end not given here
notes: also called BLM peptide; source: synthetic peptide, bought: AnyGen
binding result [4]: binds

B3: FITC-labeled BLM_(290-301) peptide (peptide, UniProt P54132 290-301, looked up)
peptide: EFDDDDYDTDFV
modifications: also: FITC via 6-aminohexanoic acid spacer, end not given here
notes: as for B2
binding result [4]: binds

B4: FITC-labeled pmRPA32-Y9A peptide (peptide, UniProt P15927 8-33, looked up)
peptide: DAGDDDYGGAGGYDQDPGGFGDPAPD
modifications: also: FITC with 6-aminohexanoic acid spacer, end not given here
Kd [5]: 40 ± 0.7 µM

B5: FITC-labeled pmRPA32-Y14A peptide (peptide, UniProt P15927 8-33, looked up)
peptide: DYGDDDAGGAGGYDQDPGGFGDPAPD
modifications: also: FITC with 6-aminohexanoic acid spacer, end not given here
Kd [5]: 37 ± 0.6 µM

B6: FITC-labeled pmRPA32-Y20A peptide (peptide, UniProt P15927 8-33, looked up)
peptide: DYGDDDYGGAGGADQDPGGFGDPAPD
modifications: also: FITC with 6-aminohexanoic acid spacer, end not given here
Kd [5]: 24.5 ± 0.7 µM

B7: FITC-labeled pmRPA32-F27A peptide (peptide, UniProt P15927 8-33, looked up)
peptide: DYGDDDYGGAGGYDQDPGGAGDPAPD
modifications: also: FITC with 6-aminohexanoic acid spacer, end not given here
Kd [5]: 21.7 ± 0.5 µM

Reference: PMC7939470 (The Journal of Biological Chemistry, 2021)
